# Test results taken from patent publication US20240335555A1 (BIOHAVEN THERAPEUTICS, published 2024).
# B1: I-24 (designed binder)
# chain: DKEEILNKIYEIMRLLDELGNAEASMRVSDLILEFMKKGDERLLEEAERLLEEVERGGSEQKLISEEDLGSGGGGSLPETGGGGSGGSSHHHHHHHHHH
# notes: also called P227; LCB1
# B2: I-26 (other)
# peptide: DKEEILNKIYEIMRLLDELGNAEASMRVSDLILEFMKKGDERLLEEAERLLEEVERGGSEQKLISEEDLGSGGGGSLPET
# notes: also called MATE agent I-26
# B3: I-27 (other)
# peptide: NDDELLMLVTDLVAEALLFAKDEEIKKRVFTLFELADKAYKNNDRDTLSKVVSELKELLERLQSGGSEQKLISEEDLGSGGGGSLPET
# notes: also called MATE agent I-27
# How the values were obtained:
# [1] = biological target: T1, SARS-CoV-2 (COVID-19) S Protein RBD, His Tag (SARS-CoV-2, UniProt P0DTC2 319-537); experiment: BLI (Octet), LCB1 binding to anchored Spike RBD
# [2] = biological target: T2, SARS-CoV2 Spike-GFP protein on 293T cells (SARS-CoV-2, UniProt P0DTC2 14-1273); experiment: flow cytometry on 293T cells expressing Spike-GFP, % gated read-out
# T2 construct: whole, on cells
# [3] = biological target: T1, SARS-CoV-2 (COVID-19) S Protein RBD, …; experiment: ELISA, Spike RBD anchored on plate
binder,measurement,setting,value
B1,binding result,[1],no binding
B2,IC50,[2],1.3 nM
B3,EC50,[3],4 nM
